Measurements as given in patent US20210340548A1.

Assays:
Test in all cases: cell-based or functional assay
[1] = target: Cry2 PHR (L348F)-p65 AD (Arabidopsis thaliana; human) (UniProt Q96524)
[2] = target: Cry2 PHR (L348F)-p65 AD-NLSx2
[3] = target: Cry2 PHR-p65 AD (Arabidopsis thaliana; human) (UniProt Q96524)
[4] = target: Cry2 PHR-p65 AD-NLSx2 (Arabidopsis thaliana; human)
[5] = target: NLSx2-p65 AD-Cry2 PHR (L348F) (human; Arabidopsis thaliana)
[6] = target: NLSx2-p65 AD-Cry2 PHR (human; Arabidopsis thaliana)
[7] = target: p65 AD-Cry2 535 (L348F) (human; Arabidopsis thaliana) (UniProt Q04206)
[8] = target: p65 AD-Cry2 535 (human; Arabidopsis thaliana) (UniProt Q04206)
[9] = target: p65 AD-Cry2 PHR (L348F) (human; Arabidopsis thaliana) (UniProt Q04206)
[10] = target: p65 AD-Cry2 PHR (human; Arabidopsis thaliana) (UniProt Q04206)

Substance | Average of the Light/Dark ratio [1] | Light/Dark [1] | Ub-ELuc luciferase, Dark [1] [relative] | Ub-ELuc luciferase, Light [1] [relative] | Average of the Light/Dark ratio [2] | Light/Dark [2] | Ub-ELuc luciferase, Dark [2] [relative] | Ub-ELuc luciferase, Light [2] [relative] | Average of the Light/Dark ratio [3] | Light/Dark [3] | Ub-ELuc luciferase, Dark [3] [relative] | Ub-ELuc luciferase, Light [3] [relative] | Average of the Light/Dark ratio [4] | Light/Dark [4] | Ub-ELuc luciferase, Dark [4] [relative] | Ub-ELuc luciferase, Light [4] [relative] | Average of the Light/Dark ratio [5] | Light/Dark [5] | Ub-ELuc luciferase, Dark [5] [relative] | Ub-ELuc luciferase, Light [5] [relative] | further results
TetR (I194T, 1-206)-SPKKK-CIB1 full | 1.6 | 1.6 | 2.7 | 4.3 | 1 | 1.4 | 5.1 | 6.8 | 1.5 | 1.7 | 2.4 | 4.1 | 0.9 | 0.8 | 20.1 | 16.6 | 1.7 | 1.8 | 19.3 | 34.3 | Average of the Light/Dark ratio [6]: 1.9; Light/Dark [6]: 2.4; Ub-ELuc luciferase, Dark [6]: 21.9 relative; Ub-ELuc luciferase, Light [6]: 50.9 relative; Average of the Light/Dark ratio [7]: 2; Light/Dark [7]: 2.3; Ub-ELuc luciferase, Dark [7]: 4.8 relative; Ub-ELuc luciferase, Light [7]: 10.5 relative; Average of the Light/Dark ratio [8]: 2.1; Light/Dark [8]: 2.1; Ub-ELuc luciferase, Dark [8]: 4.3 relative; Ub-ELuc luciferase, Light [8]: 8.7 relative; Average of the Light/Dark ratio [9]: 1.7; Light/Dark [9]: 2.2; Ub-ELuc luciferase, Dark [9]: 8.3 relative; Ub-ELuc luciferase, Light [9]: 17.2 relative; Average of the Light/Dark ratio [10]: 1.6; Light/Dark [10]: 1.6; Ub-ELuc luciferase, Dark [10]: 13.8 relative; Ub-ELuc luciferase, Light [10]: 20.7 relative
TetR (I194T, 1-206)-SPKKK-CIB1 full no NLS | 1.2 | 1.5 | 4.8 | 7.2 | 0.9 | 1.2 | 11.3 | 12.4 | 1.4 | 2 | 3 | 5.4 | 0.9 | 0.9 | 30.1 | 25.2 | 1.4 | 1.9 | 50.2 | 86.8 | Average of the Light/Dark ratio [6]: 1.6; Light/Dark [6]: 2.2; Ub-ELuc luciferase, Dark [6]: 56 relative; Ub-ELuc luciferase, Light [6]: 109 relative; Average of the Light/Dark ratio [7]: 2; Light/Dark [7]: 2.7; Ub-ELuc luciferase, Dark [7]: 9.3 relative; Ub-ELuc luciferase, Light [7]: 23.9 relative; Average of the Light/Dark ratio [8]: 2; Light/Dark [8]: 3.3; Ub-ELuc luciferase, Dark [8]: 10.4 relative; Ub-ELuc luciferase, Light [8]: 31.8 relative; Average of the Light/Dark ratio [9]: 1.4; Light/Dark [9]: 1.6; Ub-ELuc luciferase, Dark [9]: 33 relative; Ub-ELuc luciferase, Light [9]: 47.9 relative; Average of the Light/Dark ratio [10]: 1.5; Light/Dark [10]: 2; Ub-ELuc luciferase, Dark [10]: 36.2 relative; Ub-ELuc luciferase, Light [10]: 65.2 relative
